Tests used:
[1] = biological target: T1, RecGMtb (Mycobacterium tuberculosis H37Rv, UniProt P9WMQ7 1-737); assay: EMSA; no poly(dI-dC); 1 uM RecG; conditions: protein: recombinant; tags: N-terminal His6 cleaved off with thrombin (pET28b); label: 32P 5' end
T1 sequence: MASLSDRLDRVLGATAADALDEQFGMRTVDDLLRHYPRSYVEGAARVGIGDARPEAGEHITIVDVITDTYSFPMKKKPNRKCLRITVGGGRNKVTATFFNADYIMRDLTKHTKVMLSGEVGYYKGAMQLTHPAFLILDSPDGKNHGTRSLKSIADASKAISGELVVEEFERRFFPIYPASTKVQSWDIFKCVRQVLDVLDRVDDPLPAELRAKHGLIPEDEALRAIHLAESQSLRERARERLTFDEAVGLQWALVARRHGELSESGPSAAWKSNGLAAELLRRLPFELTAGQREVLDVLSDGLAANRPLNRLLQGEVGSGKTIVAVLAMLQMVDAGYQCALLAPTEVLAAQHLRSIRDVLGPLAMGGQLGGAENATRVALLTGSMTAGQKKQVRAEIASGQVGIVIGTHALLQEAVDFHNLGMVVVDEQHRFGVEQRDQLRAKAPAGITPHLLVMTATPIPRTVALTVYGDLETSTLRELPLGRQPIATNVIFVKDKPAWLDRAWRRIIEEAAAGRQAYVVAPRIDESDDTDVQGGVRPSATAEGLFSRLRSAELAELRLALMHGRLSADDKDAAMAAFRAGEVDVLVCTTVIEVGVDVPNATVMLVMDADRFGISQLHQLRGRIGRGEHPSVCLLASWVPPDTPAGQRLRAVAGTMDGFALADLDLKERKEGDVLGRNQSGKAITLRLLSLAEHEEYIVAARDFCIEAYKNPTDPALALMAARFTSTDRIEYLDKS

[2] = biological target: T1, RecGMtb; assay: EMSA; 5 mM EDTA, poly(dI-dC); 2 uM RecG; conditions: protein: recombinant; tags: N-terminal His6 cleaved off with thrombin (pET28b); label: 32P 5' end; bubble 1:2
[3] = biological target: T1, RecGMtb; assay: EMSA; 5 mM EDTA, poly(dI-dC); conditions: protein: recombinant, tags: N-terminal His6 cleaved off with thrombin (pET28b), label: 32P 5' end

B1: poly(dT) 40 nt (ssDNA)
DNA: TTTTTTTTTTTTTTTTTTTTTTTTTTTTTTTTTTTTTTTT
B1: binds [1].

B2: bubble (substrate I) (structured_DNA)
DNA 1: GGGTGAACCTGCAGGTGGGCGGCTGCTCATCGTAGGTTAGTTGGTAGAATTCGGCAGCGTC
DNA 2: GACGCTGCCGAATTCTACCAGTGCCTTGCTAGGACATCTTTGCCCACCTGCAGGTTCACCC
B2: binds [2].

B3: lagging strand replication fork (substrate E) (structured_DNA)
DNA 1: GTCGGATCCTCTAGACAGCTCCATGATCACTGGCACTGGTAGAATTCGGC
DNA 2: CAACGTCATAGACGATTACATTGCTACATGGAGCTGTCTAGAGGATCCGA
DNA 3: TAGCAATGTAATCGTCTATGACGTT
B3: binds ([3]; fork 1:2 2:3).

B4: Holliday junction (substrate H) (structured_DNA)
DNA 1: GACGCTGCCGAATTCTGGCTTGCTAGGACATCTTTGCCCACGTTGACCC
DNA 2: TGGGTCAACGTGGGCAAAGATGTCCTAGCAATGTAATCGTCTATGACGTT
DNA 3: CAACGTCATAGACGATTACATTGCTAGGACATGCTGTCTAGAGACTATCGA
DNA 4: ATCGATAGTCTCTAGACAGCATGTCCTAGCAAGCCAGAATTCGGCAGCGT
B4: binds [3].

B5: 5'-tailed duplex (oligos 3+2) (dsDNA)
DNA 1: TTTTTTTTTTTTTTTTTTTTCGTGACATGCCGTGACTAGC
DNA 2: GCTAGTCACGGCATGTCACG
B5: no binding ([3]; 5' overhang 20 nt (T20)).

B6: 3'-tailed duplex (oligos 1+2) (dsDNA)
DNA 1: CGTGACATGCCGTGACTAGCTTTTTTTTTTTTTTTTTTTT
DNA 2: GCTAGTCACGGCATGTCACG
B6: no binding ([3]; 3' overhang 20 nt (T20)).
